From publication PMC10681728, “Rad53 regulates the lifetime of Rdh54 at homologous recombination intermediates” (Nucleic Acids Research, 2023)
Where “and” joins values, the source holds several entries; their conditions need not be identical. Equal values may be shown once.

Assays:
[1] = target: 6xHis-Rdh54S852A-mCherry (S. cerevisiae); assay: single-molecule fluorescence intensity of clusters (TIRF, DNA curtains); as the cluster size estimate, but 1 nM Rdh54-mCherry mixed with 0.1 or 10 nM GFP-Rad53 or 10 nM GFP-Rad53D339A before injection onto dsDNA curtains
[2] = target: 6xHis-Rdh54S852A-mCherry (S. cerevisiae); assay: single-molecule fluorescence intensity of clusters (TIRF, DNA curtains); Rdh54-mCherry clusters bound to dsDNA; background-subtracted cluster intensity divided by the mean intensity drop of one fluorophore; estimated molecules per cluster
[3] = target: 6xHis-Rdh54T851AS852A-mCherry (S. cerevisiae); assay: as above
[4] = target: 6xHis-Rdh54T851A-mCherry (S. cerevisiae); assay: single-molecule fluorescence intensity of clusters (TIRF, DNA curtains); as the cluster size estimate, but 1 nM Rdh54-mCherry mixed with 0.1 or 10 nM GFP-Rad53 or 10 nM GFP-Rad53D339A before injection onto dsDNA curtains
[5] = target: 6xHis-Rdh54-mCherry (S. cerevisiae) (UniProt P38086)
[6] = target: the molecule itself; assay: single-molecule photobleaching step counting (TIRF, DNA curtains); Rdh54-mCherry bound to double-tethered lambda dsDNA; 561 nm laser unshuttered at 25% power, 200 ms integration; steps counted for smaller groups

Molecule “6xHis-Rdh54S852A-mCherry (natural protein)” has a median estimated molecules per cluster with 10 nM GFP-Rad53 (molecules per cluster) [1] of 5.7 and a median estimated molecules per cluster (molecules per cluster) [2] of 4.22.

In the case of “6xHis-Rdh54T851AS852A-mCherry (natural protein)”, the median estimated molecules per cluster (molecules per cluster) [3] is reported as 5.1.

“6xHis-Rdh54T851A-mCherry (natural protein)” showed a median estimated molecules per cluster with 10 nM GFP-Rad53 (molecules per cluster) [4] of 12.1.

“6xHis-Rdh54T851A (unlabeled) (natural protein)” showed a translocation rate on dsDNA of WT Rdh54 mixed with equimolar unlabeled Rdh54T851A (translocase poisoning) [5] of 23 bp/s.

B1: 6xHis-Rdh54-mCherry (natural protein, S. cerevisiae, UniProt P38086 35-958, looked up)
chain: MQIPKYENKPFKPPRRVGSNKYTQLKPTATAVTTAPISKAKVTVNLKRSISAGPTLNLAKKPNNLSSNENTRYFTIMYRKPTTKKHKTWSGDGYATLKASSDKLCFYNEAGKFLGSSMLPSDSDSLFETLFKAGSNEVQLDYELKENAEIRSAKEALSQNMGNPSPPTTSTTETVPSTKNDGGKYQMPLSQLFSLNTVKRFKSVTKQTNEHMTTVPKTSQNSKAKKYYPVFDVNKIDNPIVMNKNAAAEVDVIVDPLLGKFLRPHQREGVKFMYDCLMGLARPTIENPDIDCTTKSLVLENDSDISGCLLADDMGLGKTLMSITLIWTLIRQTPFASKVSCSQSGIPLTGLCKKILVVCPVTLIGNWKREFGKWLNLSRIGVLTLSSRNSPDMDKMAVRNFLKVQRTYQVLIIGYEKLLSVSEELEKNKHLIDMLVCDEGHRLKNGASKILNTLKSLDIRRKLLLTGTPIQNDLNEFFTIIDFINPGILGSFASFKRRFIIPITRARDTANRYNEELLEKGEERSKEMIEITKRFILRRTNAILEKYLPPKTDIILFCKPYSQQILAFKDILQGARLDFGQLTFSSSLGLITLLKKVCNSPGLVGSDPYYKSHIKDTQSQDSYSRSLNSGKLKVLMTLLEGIRKGTKEKVVVVSNYTQTLDIIENLMNMAGMSHCRLDGSIPAKQRDSIVTSFNRNPAIFGFLLSAKSGGVGLNLVGASRLILFDNDWNPSVDLQAMSRIHRDGQKKPCFIYRLVTTGCIDEKILQRQLMKNSLSQKFLGDSEMRNKESSNDDLFNKEDLKDLFSVHTDTKSNTHDLICSCDGLGEEIEYPETNQQQNTVELRKRSTTTWTSALDLQKKMNEAATNDDAKKSQYIRQCLVHYKHIDPARQDELFDEVITDSFTELKDSITFAFVKPGEICLREQ
notes: Rdh54, S. cerevisiae DNA translocase; Name printed as 6xHis-Rdh54-mCherry, plasmid pET15-6xHis-Rdh54; also called WT-Rdh54; WT; source: E. coli Rosetta 2 BL21 (DE3), purified (Ni-NTA, SP cation exchange, S300 SEC)
B1 was tested, and the “stoichiometry N” value [6] was 2 and 4 and 3.
